B1: Zinc finger protein Aiolos (Homo sapiens), Q9UKT9 (parent)
chain: MEDIQTNAELKSTQEQSVPAESAAVLNDYSLTKSHEMENVDSGEGPANEDEDIGDDSMKVKDEYSERDENVLKSEPMGNAEEPEIPYSYSREYNEYENIKLERHVVSFDSSRPTSGKMNCDVCGLSCISFNVLMVHKRSHTGERPFQCNQCGASFTQKGNLLRHIKLHTGEKPFKCHLCNYACQRRDALTGHLRTHSVEKPYKCEFCGRSYKQRSSLEEHKERCRTFLQSTDPGDTASAEARHIKAEMGSERALVLDRLASNVAKRKSSMPQKFIGEKRHCFDVNYNSSYMYEKESELIQTRMMDQAINNAISYLGAEALRPLVQTPPAPTSEMVPVISSMYPIALTRAEMSNGAPQELEKKSIHLPEKSVPSERGLSPNNSGHDSTDTDSNHEERQNHIYQQNHMVLSRARNGMPLLKEVPRSYELLKPPPICPRDSVKVINKEGEVMDVYRCDHCRVLFLDYVMFTIHMGCHGFRDPFECNMCGYRSHDRYEFSSHIARGEHRALLK
B2: DNA-binding protein Ikaros (Homo sapiens), Q13422-1 (parent)
chain: MDADEGQDMSQVSGKESPPVSDTPDEGDEPMPIPEDLSTTSGGQQSSKSDRVVASNVKVETQSDEENGRACEMNGEECAEDLRMLDASGEKMNGSHRDQGSSALSGVGGIRLPNGKLKCDICGIICIGPNVLMVHKRSHTGERPFQCNQCGASFTQKGNLLRHIKLHSGEKPFKCHLCNYACRRRDALTGHLRTHSVGKPHKCGYCGRSYKQRSSLEEHKERCHNYLESMGLPGTLYPVIKEETNHSEMAEDLCKIGSERSLVLDRLASNVAKRKSSMPQKFLGDKGLSDTPYDSSASYEKENEMMKSHVMDQAINNAINYLGAESLRPLVQTPPGGSEVVPVISPMYQLHKPLAEGTPRSNHSAQDSAVENLLLLSKAKLVPSEREASPSNSCQDSTDTESNNEEQRSGLIYLTNHIAPHARNGLSLKEEHRAYDLLRAASENSQDALRVVSTSGEQMKVYKCEHCRVLFLDHVMYTIHMGCHGFRDPFECNMCGYHSQDRYEFSSHITRGEHRFHMS

Variants of: B1
Conditions: with crbn_human CRBN

| effect of a mutation on the interaction | Variant |
| --- | --- |
| decreasing interaction strength | Q147H |

Variants of: B2
Conditions: with crbn_human CRBN

| effect of a mutation on the interaction | Variant |
| --- | --- |
| decreasing interaction strength | Q146H |

Reference: IntAct's records for PubMed 24292623
